Literature values as cited in paper PMC5996525.

Molecular target: CTLA-4 (Homo sapiens) (UniProt P16410)
Test: SPR

Chain of UniProt P16410 (P16410 36-161): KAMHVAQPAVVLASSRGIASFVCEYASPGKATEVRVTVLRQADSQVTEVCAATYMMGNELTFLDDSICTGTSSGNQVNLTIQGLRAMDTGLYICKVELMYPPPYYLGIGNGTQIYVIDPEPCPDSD

Kd: 5.89 nM
Substance: tremelimumab
